Laboratory results published in publication PMC6450523, “Substrate-analogue complex structure of Mycobacterium tuberculosis decaprenyl diphosphate synthase” (Acta Crystallographica. Section F, Structural Biology …, 2019).

Target: the molecule itself
Assay: crystal structure; sitting-drop vapour diffusion at 25°C, 0.1 M HEPES pH 7.5, 10% glycerol, 25% PEG 400, 7% PEG 3000; crystals soaked with 1 mM ISPP and 1 mM GSPP for 6 h; 1.55 Å, space group P212121, one dimer in the asymmetric unit

B1: Decaprenyl diphosphate synthase from Mycobacterium tuberculosis (enzyme)
chain: MARDARKRTSSNFPQLPPAPDDYPTFPDTSTWPVVFPELPAAPYGGPCRPPQHTSKAAAPRIPADRLPNHVAIVMDGNGRWATQRGLARTEGHKMGEAVVIDIACGAIELGIKWLSLYAFSTENWKRSPEEVRFLMGFNRDVVRRRRDTLKKLGVRIRWVGSRPRLWRSVINELAVAEEMTKSNDVITINYCVNYGGRTEITEATREIAREVAAGRLNPERITESTIARHLQRPDIPDVDLFLRTSGEQRSSNFMLWQAAYAEYIFQDKLWPDYDRRDLWAACEEYASRTRRFGSA
notes: also called MtDPPS; Rv2361c
stoichiometry N: 2
